Measured values: paper PMC2995781

How the values were obtained:
[1] = biological target: surfactant protein A (SP-A) in human broncho-alveolar lavage fluid (human (endogenous in BAL fluid)) (UniProt Q8IWL2); assay: latex bead agglutination (light microscopy); whole serum or BAL sample; streptavidin latex beads with biotinylated rabbit anti-goat antibody and goat anti-human SP-A antibody (N19); Hank solution, 6.5 mM Ca2+, 3 h at 4°C on a microscope slide; size of the biggest agglutinate in pixel
[2] = biological target: surfactant protein A (SP-A) in human serum (human (endogenous in serum)) (UniProt Q8IWL2); assay: as above

size of the agglutinates [1] [pixel]	size of the agglutinates [2] [pixel]	Substance
1060	–	surfactant protein A (SP-A) in human broncho-alveolar lavage fluid (from UniProt Q8IWL2 21-248) (natural protein)
–	1360	surfactant protein A (SP-A) in human serum (from UniProt Q8IWL2 21-248) (natural protein)
